The results in this text go back to patent publication US20190367606A1 (CENTRE FOR DRUG RESEARCH AND DEVELOPMENT, published 2019).

Experiment [1] addresses T1, human podocalyxin (human, UniProt O00592 23-558).
T1 construct: also called hPodo; hPodocalyxin
T1 sequence: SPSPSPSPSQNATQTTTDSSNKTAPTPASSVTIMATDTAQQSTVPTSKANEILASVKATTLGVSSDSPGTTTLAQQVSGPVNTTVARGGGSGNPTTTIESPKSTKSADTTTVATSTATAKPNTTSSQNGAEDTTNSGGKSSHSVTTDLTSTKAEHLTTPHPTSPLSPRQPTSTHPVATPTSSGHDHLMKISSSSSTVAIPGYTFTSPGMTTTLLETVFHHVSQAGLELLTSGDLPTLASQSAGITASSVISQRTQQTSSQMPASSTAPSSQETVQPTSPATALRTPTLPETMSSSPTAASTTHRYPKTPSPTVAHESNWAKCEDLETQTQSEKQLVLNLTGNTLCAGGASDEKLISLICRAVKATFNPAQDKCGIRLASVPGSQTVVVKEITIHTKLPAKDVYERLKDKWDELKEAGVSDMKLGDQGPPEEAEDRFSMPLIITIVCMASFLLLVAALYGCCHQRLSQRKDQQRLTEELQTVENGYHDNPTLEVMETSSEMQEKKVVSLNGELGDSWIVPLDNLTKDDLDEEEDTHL
Briefly: flow cytometry, supernatant 1:5, hPodo/MDA-MB-231 transient transfectants. The method, then:
(§1) The following antibodies were transiently transfected in 293HEK cells, transfected cells were incubated for 96 hours, antibody containing supernatant was then serially titrated in FACS sample buffer. The following supernatants were used as test samples:
(§2) MDA transient transfectants were established as essentially described above in Example 1. MDA transient transfectants and MDA-MB-231 cells were seeded in 96-well v bottom plates at 75,000 cells/well. Cells were pelleted by centrifugation at 400 g for 3 min. Supernatant was removed. The cell pellets were resuspended in 20 μl of the antibody or control supernatants. The plate was incubated on ice for 1 hour.
(§3) The cells were washed by adding 200 μl FACS buffer to dilute unbound antibody. The plate was centrifuged at 400 g for 3 min to pellet cells. The supernatant was removed and repeated. The cell pellets were resuspended in 25 μl of either goat anti-Hu IgG Fc-Alexa647, goat anti-Mouse IgG Fc-Alexa647, or goat anti-rabbit IgG0Fc-A647 (2 μg/ml) and 7A.A.D (2.5 μg/ml). The plates were incubated on ice for 0.5 hours. The wash procedure was again repeated 2×. The cell pellets were finally resuspended in 75 μl FACS buffer and read on the HTFC™ Screening System (IntelliCyt Corporation) (3 sec sip, 1.5 up time) and analyzed on the HyperView® software (IntelliCyt Corporation).
A general note: Flow cytometry measures light scatter and fluorescence of single cells or particles in a stream.

The target of experiment [2] is T1, human podocalyxin. Briefly: flow cytometry titration on 293-6E cells (endogenous podocalyxin), 24 hours at 4 C. The method, then:
(§4) The affinities of huPodo 83 1:1 and huPodo 83 2:1 antibodies were determined against endogenously expressed podocalyxin on 293 HEK cells. 293-6E cells were seeded in 96-well v bottom plates at 100,000 cells/well. The cells were pelleted at 400 g for 3 min and the supernatant was discarded. The cells were placed on ice and antibody 1:3 titrations were prepared using ice cold medium. The cells were resuspended in the prepared antibody titrations at 25 μl/well and incubated at 4° C. for either 24 or 48 hours. 200 μl 1% FBS/PGS (FACS buffer) was added to each well. The cells were pelleted at 400 g for 3 min and supernatant removed. The wash was repeated 2 more times. The cells were resuspended in goat anti-human IgGFc-A647 (2 μg/ml)+2.5 μg/ml 7AAD and incubated on ice for 30 min. The cells were washed as above and resuspended in 50 μl FACS buffer. The cells were analyzed by flow cytometry using the HTFC™ Screening System (IntelliCyt Corporation) (3 sec sip, 1.5 sec up) and the C6 cytometer (Becton Dickenson).

Experiment [3] concerns the target T1, human podocalyxin. Put plainly: flow cytometry, supernatant 1:5, MDA-MB-231 cells. The method, then: as §1, §2, §3
For experiment [4], the target named is T1, human podocalyxin. Put plainly: flow cytometry titration on 293-6E cells (endogenous podocalyxin), 48 hours at 4 C. The procedure: as §4
In experiment [5] the target is T1, human podocalyxin. Put plainly: flow cytometry, supernatant 2:15 (so in the source), MDA-MB-231 cells. The procedure:
as §1, §2, §3

Experiment [6] addresses T1, human podocalyxin. Put plainly: flow cytometry, supernatant 1:125, hPodo/MDA-MB-231 transient transfectants. The method, then: as §1, §2, §3
The target in experiment [7] is T1, human podocalyxin. Put plainly: kinetic exclusion assay (KinExA 3200), MDA-MB-231 cells. The method, then: The concentration dependence of free anti-podocalyxin antibody as a function of MDA-MB231 cell number was determined using a KinExA 3200 instrument (Sapidyne Instruments). Briefly, MDA-MB-231 cells, which express endogenous podocalyxin, were titrated 1:2 from 10×10⁶ cells/mL down 12 steps, and incubated with a fixed concentration of anti-podocalyxin antibodies. MDA-MB231 cells and cell bound antibodies were then isolated by centrifugation. Supernatant containing free, unbound antibody was then transferred to a new tube. The supernatant containing free unbound antibody was passed over the column containing PMMA beads coated with a goat anti-IgG-Fc capture antibody. The amount of free antibody captured on the PMMA beads was then measured using a goat anti-IgG-Fc-A647. This process was repeated for every cell concentration. For each sample assayed a new column of PMMA beads with the goat anti-IgG-Fc capture antibody was packed. The concentration of free antibody over the entire 12 step dilution series was then used to determine the antibody Kd's using the standard Kd template in the KineExA Pro Software (Sapidyne Instruments).
For orientation: In KinExA the mixture passes briefly over coated beads that capture the unbound partner.

Experiment [8] deals with T1, human podocalyxin. Briefly: kinetic exclusion assay (KinExA 3200), A172 cells.
The target of experiment [9] is T1, human podocalyxin. Briefly: flow cytometry, supernatant Neat, MDA-MB-231 cells. The method, then: as §1, §2, §3
Experiment [10] concerns the target T1, human podocalyxin. Briefly: flow cytometry, supernatant 2:15 (so in the source), hPodo/MDA-MB-231 transient transfectants. The procedure:
as §1, §2, §3

Experiment [11] deals with T1, human podocalyxin. Put plainly: flow cytometry, supernatant 1:125, MDA-MB-231 cells. The method, then: as §1, §2, §3
The target in experiment [12] is T1, human podocalyxin. Put plainly: flow cytometry, supernatant Neat, hPodo/MDA-MB-231 transient transfectants. The procedure: as §1, §2, §3

B1: Rb/Hu Podo83 (Podo83 rabbit VH and VL, human IgG1 chimera) (antibody, V domains shown)
VH: QSLAESGGRLVTPGTPLTLTCTASGIDLSSYAMGWVRQAPGKGLEYIGFIYASGSIFYASWAKGRFTISKTSSTTVDLKMTSLTTEDTATYFCARAGYYFGGNYDLNLWGQGTLVTVSS
VL: DIVLTQTPASVEVAVGGTVTIKCQASQSISNYLAWYQRKPGQPPRLLIYRASTLASGVSSRFKGSGSGTQFTLTISGVECADAATYYCQQGYVSNNLDNIFGGGTEVVVK
notes: Rabbit variable domains cloned into human IgG1 and human Ig kappa constant region constructs (pTT5/IgG1, pTT5/Igk); also called anti-PODO; Ab-1
By IC50 is commonly meant the point on the concentration scale where inhibition reaches its midpoint. Lower therefore signals inhibition by little substance. In general, Kd refers to the equilibrium constant for the complex coming apart. B1: the “flow cytometry fluorescence (name not given)” value with human podocalyxin [1] is 99300; with human podocalyxin [3] it was 121000; with human podocalyxin [5] it was 102000; in the experiment with human podocalyxin [6] it was 58500; with human podocalyxin [9], 143000; with human podocalyxin [10], 155000. The “flow cytometry fluorescence (name not given)” value was found to be 50600 with human podocalyxin [11] and 79000 with human podocalyxin [12]. Besides, the IC50 with human podocalyxin [2] was 0.0295 µg/mL; with human podocalyxin [4], 0.0305 µg/mL. For the same molecule, the Kd was 45.6 pM in the experiment with human podocalyxin [7] and 103 pM in the experiment with human podocalyxin [8].
